Data published in patent US20260216243A1 (TWAIN THERAPEUTICS PTE, published 2026).

T1: recombinant human interleukin 9 receptor alpha (hIL9R) fused, at the c-terminal, to a human IgG1 Fc (hIL9R-Fc) (human, UniProt Q01113 41-270)
T1 construct: Bought protein; also called Acro Biosystems, Cat. No. ILR-H5251; not shown: human IgG1 Fc fused at the C-terminal
T1 sequence: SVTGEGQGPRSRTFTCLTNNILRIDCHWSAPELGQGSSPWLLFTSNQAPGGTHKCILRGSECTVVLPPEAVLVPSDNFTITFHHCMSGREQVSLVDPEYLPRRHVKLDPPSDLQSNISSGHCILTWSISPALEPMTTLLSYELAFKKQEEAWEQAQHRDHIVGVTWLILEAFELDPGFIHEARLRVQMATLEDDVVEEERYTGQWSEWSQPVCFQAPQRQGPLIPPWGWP

B1: 2SAT57 (VHH)
VHH: QVQLQESGGGLVQAGGSLRLSCAASGSIFSINAMGWFRQAPGKQRELVAVISSGGSTNHADSVKGRFTISRDNAKNTVYLQMNSVKPEDTAVYYCLVATRGGTYEYWGQGTQVTVSS
notes: Screened as soluble Nanobody in crude periplasmic extracts, expressed from pMECS-GG; also called T3; VHH anti-IL-9Rα 2SAT57
B2: 2SAT363 (VHH)
VHH: QVQLQESGGGLVQAGGSLRLSCTVSGSFFNINAMGWYRQAPGKQRELVATITAGGSTKYEDTVKGRFTISGDSAKNTVSLQMNSLKPEDTAVYYCAAWGTRIRDDYWGQGTQVTVSS
notes: Screened as soluble Nanobody in crude periplasmic extracts, expressed from pMECS-GG; also called T2; VHH anti-IL-9Rα 2SAT363

Key:
[1] = molecular target: T1, recombinant human interleukin 9 …; assay: selected from the clones positive in ELISA of periplasmic extracts on coated hIL9R-Fc
Description: (§1) The antigen used for panning and ELISA screening was the same as the one used for immunization (Acro Biosystems, Cat. No. ILR-H5251), using uncoated blocked wells as negative control (blank) and hIgG1-Fc (Sino Biological, Cat. No. 10702-HNAH) coated wells as reference for Fc specific clones. Out of these 570 colonies tested by ELISA, 90 colonies scored positive for hIL9R-Fc only. Based on sequence data of the positive colonies, 29 different Nanobodies were distinguished, belonging to 14 different CDR3 groups (B-cell lineages)

hIgG1-Fc = molecular target: T2, hIgG1-Fc (human, UniProt P01857-1 99-330 = IgG part, limits assumed); assay: ELISA, crude periplasmic extracts on hIgG1-Fc coated wells as reference for Fc specific clones
T2 construct: domain: Fc; also called Sino Biological, Cat. No. 10702-HNAH
Description: as §1

Binder	binding result [1]	binding result (hIgG1-Fc)
B1	binds	no binding
B2	binds	no binding
